From IntAct's records for PubMed 24446487 come the findings set out here.

The target in the assay is ospg_shifl ospG (UniProt Q99PZ6).
ospg_shifl ospG, sequence (Q99PZ6 whole entry): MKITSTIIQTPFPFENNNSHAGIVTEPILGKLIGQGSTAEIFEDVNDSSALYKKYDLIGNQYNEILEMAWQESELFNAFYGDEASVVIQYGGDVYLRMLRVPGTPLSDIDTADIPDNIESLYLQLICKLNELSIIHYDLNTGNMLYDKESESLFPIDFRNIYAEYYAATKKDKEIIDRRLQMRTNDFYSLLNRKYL

Ubiquitin-conjugating enzyme E2 D3 (Homo sapiens), P61077 F62A, sequence (P61077 whole entry F62A): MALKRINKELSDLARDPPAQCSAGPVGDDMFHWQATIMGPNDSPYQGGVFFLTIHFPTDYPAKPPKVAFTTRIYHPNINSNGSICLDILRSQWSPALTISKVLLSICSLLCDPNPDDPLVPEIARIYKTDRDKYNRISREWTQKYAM

Regarding “Ubiquitin-conjugating enzyme E2 D3 (Homo sapiens), P61077 F62A”, the “effect of a mutation on the interaction” value was “disrupting interaction”.
